Reference: patent publication US20190062453A1 (Hoffmann-La Roche, published 2019)
Positions count from the first letter of the chain named. Numbers in names are those of the source. Read-outs that look alike come from different tables or passages of the source.

Legend:
[1] = biological target: murine FAP on recombinant 3T3 cells (murine, UniProt P97321 1-761); assay: cell-based or functional assay
[2] = biological target: T1, cynomolgus DR5 in the TagLite assay (cynomolgus); assay: TagLite TR-FRET on cells
T1 construct: also called cy DR5 (TagLite)

[3] = biological target: T2, Human FAP ectodomain + poly-lys-tag + his6-tag (human, UniProt Q12884 27-760); assay: SPR (Biacore), bispecific antibody bound to immobilised human DR5-Fc, recombinant human FAP as second analyte (simultaneous binding)
T2 construct: also called recombinant soluble human FAP; hFAP

human FAP on cells = biological target: T3, human FAP on cells (human, UniProt Q12884 1-760); assay: FACS on recombinant HEK293 cells expressing human FAP
T3 construct: whole, on cells; also called human FAP expressed on recombinant HEK293 cells; FAP on GM05389 fibroblasts

[4] = biological target: T4, Hu DR5 (ECD)-AcTev-Fc-Avi (human); assay: SPR (Biacore), biotinylated human DR5-Fc on a streptavidin chip, bispecific antibody as first analyte
T4 construct: dimeric Fc fusion, biotinylated on the Avi tag where immobilised on streptavidin; also called human DR5-Fc; huDR5Fc

[5] = biological target: T2, Human FAP ectodomain + poly-lys-tag + …; assay: SPR (Biacore), bispecific antibody bound to immobilised human DR5-Fc, recombinant soluble human FAP as second analyte (simultaneous binding)
[6] = biological target: T5, Murine FAP ectodomain + poly-lys-tag + his6-tag (murine, UniProt P97321 27-761); assay: SPR (Biacore), bispecific antibody bound to immobilised human DR5-Fc, recombinant soluble murine FAP as second analyte (simultaneous binding)
T5 construct: also called recombinant soluble murine FAP

[7] = biological target: T6, human DR5 (recombinant, fusion format not stated for the assay) (human, UniProt O14763 56-207); assay: SPR (Biacore), 2+2 over immobilised DR5 ECD
T6 construct: all antigen constructs carry ECD aa 56-207; also called hu DR5; huDR5

[8] = biological target: T6, human DR5 (recombinant, fusion format …); assay: SPR (Biacore), affinity, 2+2 captured and DR5 injected
[9] = biological target: T7, Cynom. DR5 (ECD)-AcTev-Fc-Avi (cynomolgus); assay: as above
T7 construct: also called cynomolgus DR5; cy DR5

[10] = biological target: T2, Human FAP ectodomain + poly-lys-tag + …; assay: SPR, bispecific captured by anti human IgG (Fc), human FAP 5 µg/ml
[11] = biological target: T7, Cynom. DR5 (ECD)-AcTev-Fc-Avi; assay: SPR (Biacore), 2+2 over immobilised DR5 ECD
[12] = biological target: T4, Hu DR5 (ECD)-AcTev-Fc-Avi; assay: SPR (Biacore), biotinylated human DR5-Fc on a streptavidin chip, bispecific antibody as first analyte; remark: listed apart in the source
[13] = biological target: T2, Human FAP ectodomain + poly-lys-tag + …; assay: SPR (Biacore), bispecific antibody bound to immobilised human DR5-Fc, recombinant soluble human FAP as second analyte (simultaneous binding); remark: listed apart in the source
[14] = biological target: T5, Murine FAP ectodomain + poly-lys-tag + …; assay: SPR (Biacore), bispecific antibody bound to immobilised human DR5-Fc, recombinant soluble murine FAP as second analyte (simultaneous binding); remark: listed apart in the source
[15] = biological target: T2, Human FAP ectodomain + poly-lys-tag + …; assay: Affinity human, method not stated

B1: DR5(5E11)-28H1 VHCL 2 + 2 (bispecific antibody, human IgG1, kappa)
heavy: not shown
light: EIVLTQSPGTLSLSPGERATLSCRASQSVSSSYLAWYQQKPGQAPRLLIYGASSRATGIPDRFSGSGSGTDFTLTISRLEPEDFAVYYCQQGTTHPITFGQGTKVEIKRTVAAPSVFIFPPSDEQLKSGTASVVCLLNNFYPREAKVQWKVDNALQSGNSQESVTEQDSKDSTYSLSSTLTLSKADYEKHKVYACEVTHQGLSSPVTKSFNRGEC
chain: EIVLTQSPGTLSLSPGERATLSCRASQSVSRSYLAWYQQKPGQAPRLLIIGASTRATGIPDRFSGSGSGTDFTLTISRLEPEDFAVYYCQQGQVIPPTFGQGTKVEIKSSASTKGPSVFPLAPSSKSTSGGTAALGCLVKDYFPEPVTVSWNSGALTSGVHTFPAVLQSSGLYSLSSVVTVPSSSLGTQTYICNVNHKPSNTKVDKKVEPKSCD
notes: also called DR5TAA-0030
Question: With B1 as the binder, how does the “Cell Death Detection ELISA, DLD-1 cells with 3T3 cells expressing murine FAP” value [1] read?
Answer: Its value is 10 fold.

Question: What about the Avidity [2] of the same binder?
Answer: The Avidity was 0.4 nM.

Question: Does B1 bind [3]?
Answer: Result: binds

B2: Drozitumab-X-FAP_A (2 + 2) (bispecific antibody, human IgG1, lambda)
heavy: not shown
chain: B1 chain
light: SELTQDPAVSVALGQTVRITCSGDSLRSYYASWYQQKPGQAPVLVIYGANNRPSGIPDRFSGSSSGNTASLTITGAQAEDEADYYCNSADSSGNHVVFGGGTKLTVLGQPKAAPSVTLFPPSSEELQANKATLVCLISDFYPGAVTVAWKADSSPVKAGVETTTPSKQSNNKYAASSYLSLTPEQWKSHRSYSCQVTHEGSTVEKTVAPTECS
notes: 4G8 VH-CL fused to the C-terminus of the Drozitumab heavy chain; also called GA803_A01_E02A_014
Question: Does B2 bind (human FAP on cells)?
Answer: Result: binds

Question: Does B2 bind [4]?
Answer: Result: binds

Question: Does B2 bind [5]?
Answer: Result: binds

Question: Does B2 bind [6]?
Answer: Result: binds

B3: DR5TAA-0035 (bispecific antibody, human IgG1, kappa)
heavy: not shown
light: ADIVMTQTASPVSAAVGGTVTINCQASQSISSSYVSWYQQKPGQPPKLLIYKASTLASGVPSRFSGSGSGTQLSLTIRGVQCDDAATYYCLYGYSDVSSSEYVFGGGTEVVVRRTVAAPSVFIFPPSDEQLKSGTASVVCLLNNFYPREAKVQWKVDNALQSGNSQESVTEQDSKDSTYSLSSTLTLSKADYEKHKVYACEVTHQGLSSPVTKSFNRGEC
chain: B1 chain
notes: also called 0016-28H1
Question: Which results are given for B3?
Answer: Cell Death Detection ELISA, DLD-1 cells with 3T3 cells expressing murine FAP [1]: 10 fold; Avidity [2]: 0.7 nM; Avidity [7]: 0.08 nM; Kd [8]: 5.1 nM; Kd [9]: 2 nM; binding result [3]: binds

B4: DR5TAA-0078 (bispecific antibody)
heavy: not shown
chain: B1 chain with R31S, I50Y, T54S, Q93T, V94T, I95H, P97I
light: B1 light with S31R, Y50I, S54T, T93Q, T94V, H95I, I97P
notes: also called format D
Question: B4 was tested. Which “FAP [RU max]” value [10] did it give?
Answer: Its value is 38.4 RU.

B5: DR5TAA-0033 (bispecific antibody, human IgG1, kappa)
heavy: not shown
light: ADIVMTQTPASVSEPVGGTVTIKCQASQSISTYLSWYQQKPGQPPKRLIYKASTLASGVPSRFKGSGSGTDFTLTIRDLECADAATYYCQPNSGIATYGAAFGGGTEVVVKRTVAAPSVFIFPPSDEQLKSGTASVVCLLNNFYPREAKVQWKVDNALQSGNSQESVTEQDSKDSTYSLSSTLTLSKADYEKHKVYACEVTHQGLSSPVTKSFNRGEC
chain: B1 chain
notes: also called 0011-28H1
Question: What does the source list for B5?
Answer: Cell Death Detection ELISA, DLD-1 cells with 3T3 cells expressing murine FAP [1]: 10 fold; Avidity [2]: 0.3 nM; Avidity [7]: 0.1 nM; Avidity [11]: 3.72 nM; Kd [8]: 9.8 nM; Kd [9]: 20.2 nM; binding result [3]: binds

B6: DR5TAA-0077 (bispecific antibody, human IgG1, kappa)
heavy: not shown
chain: not shown
light: B1 light with S31R, Y50I, S54T, T93Q, T94V, H95I, I97P
notes: also called format C
Question: Which “FAP [RU max]” value [10] does the source give for B6 here?
Answer: The value was 41.9 RU.

B7: DR5(5E11)-28H1 VHCL 2 + 2 P329GLALA (bispecific antibody, human IgG1, kappa, L234A L235A)
heavy: not shown
light: B1 light
chain: B1 chain
notes: C-terminal lysine removed, L234A L235A P329G in Fc; also called DR5TAA-0057; format A
Question: B7 was tested. Which “Cell Death Detection ELISA, DLD-1 cells with 3T3 cells expressing murine FAP” value [1] did it give?
Answer: Its value is 10 fold.

Question: What about the Avidity [2] of the same binder?
Answer: The Avidity was 0.6 nM.

Question: What about the “FAP [RU max]” value [10] of the same binder?
Answer: Its value is 40.8 RU.

B8: DR5TAA-0081 (bispecific antibody, human IgG1, kappa, L234A L235A)
heavy: not shown
light: B1 light
chain: EVQLLESGGGLVQPGGSLRLSCAASGFTFSSHAMSWVRQAPGKGLEWVSAIWASGEQYYADSVKGRFTISRDNSKNTLYLQMNSLRAEDTAVYYCAKGWLGNFDYWGQGTLVTVSSASVAAPSVFIFPPSDEQLKSGTASVVCLLNNFYPREAKVQWKVDNALQSGNSQESVTEQDSKDSTYSLSSTLTLSKADYEKHKVYACEVTHQGLSSPVTKSFNRGEC
notes: also called format F
Question: With B8 as the binder, how does the “FAP [RU max]” value [10] read?
Answer: The value was 7.2 RU.

B9: Drozitumab-X-FAP_B (2 + 2) (bispecific antibody, human IgG1, lambda)
heavy: not shown
chain: not shown
light: B2 light
notes: 4G8 VL-CH1 fused to the C-terminus of the Drozitumab heavy chain; also called GA803_A01_E02A_015
Question: Does B9 bind (human FAP on cells)?
Answer: Result: binds

Question: Does B9 bind [12]?
Answer: Result: binds

Question: Does B9 bind [13]?
Answer: Result: binds

Question: Does B9 bind [14]?
Answer: Result: binds

B10: 4G8_scFab_HC (bispecific antibody, human IgG1, kappa, lambda)
heavy: not shown
light: B2 light
notes: also called GA803_A01_B02A_001; Drozitumab-scFab-FAP
Question: Does B10 bind (human FAP on cells)?
Answer: Result: binds

B11: 28H1 (antibody, V domains shown)
VH: EVQLLESGGGLVQPGGSLRLSCAASGFTFSSHAMSWVRQAPGKGLEWVSAIWASGEQYYADSVKGRFTISRDNSKNTLYLQMNSLRAEDTAVYYCAKGWLGNFDYWGQGTLVTVSS
VL: EIVLTQSPGTLSLSPGERATLSCRASQSVSRSYLAWYQQKPGQAPRLLIIGASTRATGIPDRFSGSGSGTDFTLTISRLEPEDFAVYYCQQGQVIPPTFGQGTKVEIK
notes: also called FAP(28H1); 28H1 (IgG)
Question: B11 was tested. Which Kd [15] did it give?
Answer: The Kd was 2.6 nM.
